In assay [1] the target is full-length PcrV.6xhis (Pseudomonas aeruginosa). The assay is described as follows: SPR (Biacore T200), mAb captured via anti-human Fc, PcrV injected, 37 C. On the technique in general: SPR reads the build-up and loss of mass on a sensor chip optically.
Assay [2] has the same target. The assay is described as follows: SPR (Biacore T200), mAb captured via anti-human Fc, PcrV injected, 25 C.

On to REGN1932 (antibody), for which the 90 nM Ag Bound (RU) is -22.5 RU in assay [1] and -5.9 RU in assay [2].

(Values after US20260184768A1.)
